Where a chain is given by its changes, count along the chain named.
Target: T1, MutS (Escherichia coli, UniProt P23909 1-853)
T1 sequence: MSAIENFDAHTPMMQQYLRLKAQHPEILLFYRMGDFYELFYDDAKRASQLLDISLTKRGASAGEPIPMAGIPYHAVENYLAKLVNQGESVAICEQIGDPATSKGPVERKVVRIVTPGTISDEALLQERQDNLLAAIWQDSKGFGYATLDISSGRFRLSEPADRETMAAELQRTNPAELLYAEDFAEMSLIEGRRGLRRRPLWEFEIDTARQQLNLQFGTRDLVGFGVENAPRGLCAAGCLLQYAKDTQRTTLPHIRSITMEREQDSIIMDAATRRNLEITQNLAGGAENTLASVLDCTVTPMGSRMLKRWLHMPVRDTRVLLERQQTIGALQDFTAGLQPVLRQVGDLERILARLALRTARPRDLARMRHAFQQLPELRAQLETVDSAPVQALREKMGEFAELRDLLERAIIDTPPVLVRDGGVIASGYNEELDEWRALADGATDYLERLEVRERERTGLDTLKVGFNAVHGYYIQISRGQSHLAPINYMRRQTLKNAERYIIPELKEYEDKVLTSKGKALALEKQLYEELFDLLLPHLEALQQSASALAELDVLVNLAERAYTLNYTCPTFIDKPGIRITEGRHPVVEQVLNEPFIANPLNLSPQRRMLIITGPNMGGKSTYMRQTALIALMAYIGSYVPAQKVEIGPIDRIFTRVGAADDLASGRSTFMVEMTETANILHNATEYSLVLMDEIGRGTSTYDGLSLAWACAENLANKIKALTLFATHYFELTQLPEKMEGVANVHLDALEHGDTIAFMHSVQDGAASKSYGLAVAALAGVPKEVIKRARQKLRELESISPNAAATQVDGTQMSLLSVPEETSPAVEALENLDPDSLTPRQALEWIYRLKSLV
Test: EMSA; 5 mM Mg2+; 20 pmol unlabeled GC duplex; 20 mM Tris-HCl pH 7.6, 50 mM KCl, 5 mM MgCl2, 1 mM DTT, 0.05 mg/ml BSA, 37 °C 15 min, 20 μl, 2 pmol labeled duplex, 20 pmol unlabeled GC duplex, 5% native PAGE
Details: protein: recombinant, tags: His6, chain copies: 2, label: 5'-32P (KN-2 or KN-3 strand)

B1: O6-MeG:C duplex (dsDNA)
DNA 1: GGTCGCTGGGGAATGGGAGTGGCCACGGCG
DNA 2: CGCCGTGGCCACTCCCATTCCCCAGCGACC
modifications: O6-methylguanine opposite C
In the case of B1, the Kd (O6-MeG:C pair) is reported as 220 nM.

B2: G:T duplex (dsDNA)
DNA 1: B1 DNA 1
DNA 2: B1 DNA 2 with C15T
Work on B2 yielded a Kd (G:T mismatch) of 75 nM.

B3: O6-MeG:T duplex (dsDNA)
DNA 1: B1 DNA 1
DNA 2: B1 DNA 2 with C15T
modifications: O6-methylguanine opposite T
With B3 the Kd (O6-MeG:T pair) was 120 nM.

B4: O6-EtG:C duplex (dsDNA)
DNA 1: B1 DNA 1
DNA 2: B1 DNA 2
modifications: O6-ethylguanine opposite C
Work on B4 yielded a Kd (O6-EtG:C pair) of 220 nM.

B5: O6-EtG:T duplex (dsDNA)
DNA 1: B1 DNA 1
DNA 2: B1 DNA 2 with C15T
modifications: O6-ethylguanine opposite T
With B5 the Kd (O6-EtG:T pair) was 210 nM.
